From patent US20200093883

System: JNK inhibitor according to SEQ ID NO: 172 ("XG-104")

Substance: c-Jun N-terminal kinase (JNK) in primary mouse cortical neurons
- c-Jun phosphorylation (immunoblot), WT neurons stressed with 2 µM Aβ42, 10 µM XG-104: XG-104 showed -29% efficacy in order to decrease c-Jun phosphorylation (FIG. 55 C)
